The source of these data is the supplement of paper PMC10567573.

Sequences and labels used below:
B1: FUT8 (parent)
chain: YAHQPRTADEIPMEPGDIIGVAGN
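Note: lentivirally expressed fusions sorted by FACS into six bins by GFP to DsRed ratio, PSI derived from sequencing read proportions per bin multiplied by bin number.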

The variants in this data set derive from B1. The experiment in a line: protein stability index of a GFP-peptide fusion (GPS, HEK-293T) (PSI 1-6); higher = more stable. Particulars: c terminus: a fixed tail appended.
As for YAHQPRTADEIPMEPGDIIGVRGN [A22R], the protein stability index stood at 4.
Consider YAHQPRTADEIPMEPGDIIGVSGN [A22S], for which the protein stability index is 3.92.
With YGHQPRTADEIPMEPGDIIGVAGN [A2G], the protein stability index came to 4.69.
The value for YCHQPRTADEIPMEPGDIIGVAGN [A2C] was 4.03.
For the variant YWHQPRTADEIPMEPGDIIGVAGN [A2W], the protein stability index amounted to 3.63.
As for YNHQPRTADEIPMEPGDIIGVAGN [A2N], the protein stability index was found to be 4.92.
For the variant YDHQPRTADEIPMEPGDIIGVAGN [A2D], the protein stability index came out at 5.06.
In the case of YPHQPRTADEIPMEPGDIIGVAGN [A2P], the protein stability index is 4.43.
Consider YFHQPRTADEIPMEPGDIIGVAGN [A2F], for which the protein stability index was 4.45.
The same measure for YRHQPRTADEIPMEPGDIIGVAGN [A2R]: 4.56; for YAHQPRTADEIPMEPGDIIGVAGA [N24A]: 3.95.
For YAHQPRTADEIPMEPGDIIGVAGS [N24S], the protein stability index turned out to be 4.17.
Take YAHQPRTADEIPMEPGDIIGVAGR [N24R]: the protein stability index came to 3.5.
For the variant YAHQPRTADEIPMEPGDIIGVAGF [N24F], the protein stability index came out at 2.46.
Take YAHQPRTADEIPMEPSDIIGVAGN [G16S]: the protein stability index came out at 3.87.
With YAHQPRTADEIPMEPRDIIGVAGN [G16R], the protein stability index amounted to 3.66.
As to YAHQPRTADEIPMEPADIIGVAGN [G16A], the protein stability index worked out at 4.3.
YAHQPRTADEIPMEPLDIIGVAGN [G16L]: the protein stability index worked out at 3.73.
Regarding YAHQPRTADEIPMEPHDIIGVAGN [G16H], the protein stability index was 4.08.
For YAHQPRTADEIPMEPFDIIGVAGN [G16F], the protein stability index was found to be 2.93.
Regarding YAHQPRTADEIPMEPGDEIGVAGN [I18E], the protein stability index turned out to be 4.19.
As to YAHQPRTADEIPMEPGDRIGVAGN [I18R], the protein stability index is 4.45.
Consider YAHQPRTADEIPMEPGDNIGVAGN [I18N], for which the protein stability index came to 4.03.
The value for YAHQPRTADEIPMEPGDDIGVAGN [I18D] was 4.95.
As to YAHQPRTADEIPMEPGDPIGVAGN [I18P], the protein stability index is 4.7.
As for YAHQPRTADEIPMEPGDKIGVAGN [I18K], the protein stability index came to 4.56.
As to YAHQPRTADEIPMEPGDCIGVAGN [I18C], the protein stability index stood at 3.01.
Take YAHQPRTADEIPMEPGDTIGVAGN [I18T]: the protein stability index was 4.2.
The same measure for YAHQMRTADEIPMEPGDIIGVAGN [P5M]: 3.53.
Turning to YAHQVRTADEIPMEPGDIIGVAGN [P5V], the protein stability index was 3.92.
YAHQCRTADEIPMEPGDIIGVAGN [P5C]: the protein stability index stood at 3.72.
The same measure for YAHQARTADEIPMEPGDIIGVAGN [P5A]: 4.23; for YAHQLRTADEIPMEPGDIIGVAGN [P5L]: 3.75; for YAHQKRTADEIPMEPGDIIGVAGN [P5K]: 3.61.
Take YAHQYRTADEIPMEPGDIIGVAGN [P5Y]: the protein stability index was found to be 3.48.
On to YAHQWRTADEIPMEPGDIIGVAGN [P5W], for which the protein stability index came out at 1.88.
Take YAHQPRTADERPMEPGDIIGVAGN [I11R]: the protein stability index worked out at 4.07.
The value for YAHQPRTADEAPMEPGDIIGVAGN [I11A] was 4.44.
Take YAHQPRTADEVPMEPGDIIGVAGN [I11V]: the protein stability index turned out to be 4.55.
YAHQPRTADEMPMEPGDIIGVAGN [I11M]: the protein stability index worked out at 4.09.
In the case of YAHQPRTADEPPMEPGDIIGVAGN [I11P], the protein stability index is 4.12.
Regarding YAHQPRTADEEPMEPGDIIGVAGN [I11E], the protein stability index amounted to 4.37.
YAHQPRTADEQPMEPGDIIGVAGN [I11Q]: the protein stability index amounted to 4.46.
Regarding YAHQPRTADEGPMEPGDIIGVAGN [I11G], the protein stability index came to 3.98.
For the variant YAHQPRTADECPMEPGDIIGVAGN [I11C], the protein stability index worked out at 4.26.
In the case of YAHQPRTADETPMEPGDIIGVAGN [I11T], the protein stability index stood at 4.2.
With YAHQPRTADEKPMEPGDIIGVAGN [I11K], the protein stability index was 4.27.
For the variant YAPQPRTADEIPMEPGDIIGVAGN [H3P], the protein stability index came to 2.92.
On to YAWQPRTADEIPMEPGDIIGVAGN [H3W], for which the protein stability index stood at 3.11.
The value for YAFQPRTADEIPMEPGDIIGVAGN [H3F] was 3.66; that for YAVQPRTADEIPMEPGDIIGVAGN [H3V] was 4.46.
YAQQPRTADEIPMEPGDIIGVAGN [H3Q]: the protein stability index is 4.39.
As for YACQPRTADEIPMEPGDIIGVAGN [H3C], the protein stability index came out at 3.62.
Regarding YASQPRTADEIPMEPGDIIGVAGN [H3S], the protein stability index came out at 4.36.
Turning to YAYQPRTADEIPMEPGDIIGVAGN [H3Y], the protein stability index was 3.45.
As for YAHQPRTADAIPMEPGDIIGVAGN [E10A], the protein stability index amounted to 3.67.
The value for YAHQPRTADMIPMEPGDIIGVAGN [E10M] was 3.44; that for YAHQPRTADQIPMEPGDIIGVAGN [E10Q] was 3.08; that for YAHQPRTADDIPMEPGDIIGVAGN [E10D] was 4.18.
With YAHQPRTADIIPMEPGDIIGVAGN [E10I], the protein stability index came to 2.99.
With YAHQPRTADSIPMEPGDIIGVAGN [E10S], the protein stability index is 3.74.
The value for YAHQPRTADVIPMEPGDIIGVAGN [E10V] was 3.37; that for YAHQPRTADEIPAEPGDIIGVAGN [M13A] was 4.69; that for YAHQPRTADEIPGEPGDIIGVAGN [M13G] was 4.52.
As for YAHQPRTADEIPVEPGDIIGVAGN [M13V], the protein stability index stood at 4.68.
The same measure for YAHQPRTADEIPEEPGDIIGVAGN [M13E]: 4.73; for YAHQPRTADEIPNEPGDIIGVAGN [M13N]: 4.46.
With YAHQPRTADEIPCEPGDIIGVAGN [M13C], the protein stability index came to 3.9.
Turning to YAHQPRTADEIPPEPGDIIGVAGN [M13P], the protein stability index stood at 4.18.
Regarding YAHQPRTADEIPKEPGDIIGVAGN [M13K], the protein stability index worked out at 3.95.
YAHQPRTADEIPQEPGDIIGVAGN [M13Q]: the protein stability index is 4.71.
Take YAHQPRTADEIPMEPGDIRGVAGN [I19R]: the protein stability index worked out at 4.4.
For the variant YAHQPRTADEIPMEPGDIKGVAGN [I19K], the protein stability index stood at 4.42.
For YAHQPRTADEIPMEPGDIDGVAGN [I19D], the protein stability index was determined as 5.07.
With YAHQPRTADEIPMEPGDISGVAGN [I19S], the protein stability index is 4.55.
As for YAHQPRTADEIPMEPGDIPGVAGN [I19P], the protein stability index was 4.61.
The value for YAHQPRTADEIPMEPGDIEGVAGN [I19E] was 5.21; that for YAHQPRVADEIPMEPGDIIGVAGN [T7V] was 3.89.
The value for YAHQPRCADEIPMEPGDIIGVAGN [T7C] was 2.73; that for YAHQPRSADEIPMEPGDIIGVAGN [T7S] was 4.12; that for YAHQPRHADEIPMEPGDIIGVAGN [T7H] was 3.66.
The value for YAHQPREADEIPMEPGDIIGVAGN [T7E] was 4.84; that for YAHQPRWADEIPMEPGDIIGVAGN [T7W] was 2.46.
For YAHQPRPADEIPMEPGDIIGVAGN [T7P], the protein stability index was determined as 3.97.
The same measure for YAHQPRYADEIPMEPGDIIGVAGN [T7Y]: 3.58; for YAHQPRTADEIPMEPGDIINVAGN [G20N]: 4.29; for YAHQPRTADEIPMEPGDIIEVAGN [G20E]: 4.48.
For the variant YAHQPRTADEIPMEPGDIILVAGN [G20L], the protein stability index stood at 2.96.
Regarding YAHQPRTADEIPMEPGDIIAVAGN [G20A], the protein stability index amounted to 4.26.
Take YAHQPRTADEIPMEPGDIIMVAGN [G20M]: the protein stability index came to 4.11.
Regarding YAHQPRTADEIPMEPGDIIWVAGN [G20W], the protein stability index is 2.08.
The value for YAHQPRTADEIPMEPGDIIDVAGN [G20D] was 4.59; that for YAHQPRTADEIPMEPGDIIKVAGN [G20K] was 4.34.
In the case of YAHQPRTADEIPMEPGDIICVAGN [G20C], the protein stability index amounted to 3.73.
